# Like-named read-outs stand apart in the source and are kept apart here.
# B1: QP372337241461 (antibody)
# chain 1: MEFGLSWLFLVAILKGVQCQVQLVQSGAEVKKPGASVKVSCKASGYTFTSYIMHWVRQAPGQGLEWMGYINPYNDGTKYNEKFKGRVTMTRDTSTSTVYMELSSLRSEDTAVYYCARLGFTTRNAMDYWGQGTLVTVSSASTKGPSVFPLAPSSKSTSGGTAALGCLVKDYFPEPVTVSWNSGALTSGVHTFPAVLQSSGLYSLSSVVTVPSSSLGTQTYICNVNHKPSNTKVDKKVEPKSCGGGGSGGGGSGGGGSEVQLLESGGGLVQPGGSLKLSCAASGFTFNTYAMNWVRQAPGKGLEWVARIRSKYNNYATYYADSVKDRFTISRDDSKNTAYLQMNNLKTEDTAVYYCVRHGNFGNSYVSWFAYWGQGTLVTVSSGGGGSGGGGSGGGGSESKYGPPCPPCPAPEFLGGPSVFLFPPKPKDTLMISRTPEVTCVVVDVSQEDPEVQFNWYVDGVEVHNAKTKPREEQFNSTYRVVSVLTVLHQDWLNGKEYKCKVSNKGLPSSIEKTISKAKGQPREPQVYTLPPSQEEMTKNQVSLSCAVKGFYPSDIAVEWESNGQPENNYKTTPPVLDSDGSFFLVSRLTVDKSRWQEGNVFSCSVMHEALHNHYTQKSLSLSLGGSSDYKDDDDK
# chain 2: not shown
# chain 3: not shown
# B2: QP090837493746 (bispecific antibody)
# chain 1: not shown
# chain 2: not shown
# chain 3: QVQLVQSGAEVKKPGASVKVSCKASGYTFTSYIMHWVRQAPGQGLEWMGYINPYNDGTKYNEKFKGRVTMTRDTSTSTVYMELSSLRSEDTAVYYCARLGFTTRNAMDYWGQGTLVTVSSASTKGPSVFPLAPSSKSTSGGTAALGCLVKDYFPEPVTVSWNSGALTSGVHTFPAVLQSSGLYSLSSVVTVPSSSLGTQTYICNVNHKPSNTKVDKKVEPKSC
# B3: QP091037493746 (bispecific antibody)
# chain 1: not shown
# chain 2: not shown
# chain 3: B2 chain 3
# B4: QP374437481461 (antibody)
# chain 1: not shown
# chain 2: MEFGLSWLFLVAILKGVQCQVQLVQSGAEVKKPGASVKVSCKASGYTFTSYIMHWVRQAPGQGLEWMGYINPYNDGTKYNEKFKGRVTMTRDTSTSTVYMELSSLRSEDTAVYYCARLGFTTRNAMDYWGQGTLVTVSSASTKGPSVFPLAPSSKSTSGGTAALGCLVKDYFPEPVTVSWNSGALTSGVHTFPAVLQSSGLYSLSSVVTVPSSSLGTQTYICNVNHKPSNTKVDKKVEPKSCESKYGPPCPPCPAPEFLGGPSVFLFPPKPKDTLMISRTPEVTCVVVDVSQEDPEVQFNWYVDGVEVHNAKTKPREEQFNSTYRVVSVLTVLHQDWLNGKEYKCKVSNKGLPSSIEKTISKAKGQPREPQVYTLPPSQEEMTKNQVSLSCAVKGFYPSDIAVEWESNGQPENNYKTTPPVLDSDGSFFLVSRLTVDKSRWQEGNVFSCSVMHEALHNHYTQKSLSLSLGGSSDYKDDDDK
# chain 3: not shown
# B5: QP090937493746 (bispecific antibody)
# chain 1: not shown
# chain 2: not shown
# chain 3: B2 chain 3
# Tests used:
# [1] = molecular target: T1, CD3 naturally expressed on Jurkat cells (human, UniProt P07766 23-207); assay: FACS
# [2] = molecular target: T1, CD3 naturally expressed on Jurkat cells; assay: FACS; remark: listed apart in the source
# T1 sequence (P07766 23-207): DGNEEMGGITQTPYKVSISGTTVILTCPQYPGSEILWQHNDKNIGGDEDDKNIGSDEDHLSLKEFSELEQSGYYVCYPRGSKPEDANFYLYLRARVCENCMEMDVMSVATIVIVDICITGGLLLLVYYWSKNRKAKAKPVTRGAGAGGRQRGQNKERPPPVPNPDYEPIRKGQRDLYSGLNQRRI
Binder,EC50 [1] [nM],EC50 [2] [nM]
B1,172,–
B2,–,64.3
B3,–,34
B4,133,–
B5,–,21.9
